Results as given in US8841274B2, “Protein arginine N-methyltransferase-5 method of cancer treatment” (priority 2009, dated 2014).

Assays:
DP-1 = target: T1, DP-1 (Homo sapiens, UniProt Q14186); assay: Co-immunoprecipitation of ectopic E2F-1 with DP-1 in U2OS cells; assay type: cell-based; conditions: expression vector transfected into U2OS cells, HA11 IP
T1 construct: endogenous in cells; host or cells: U2OS
T1 sequence (Q14186 1-410): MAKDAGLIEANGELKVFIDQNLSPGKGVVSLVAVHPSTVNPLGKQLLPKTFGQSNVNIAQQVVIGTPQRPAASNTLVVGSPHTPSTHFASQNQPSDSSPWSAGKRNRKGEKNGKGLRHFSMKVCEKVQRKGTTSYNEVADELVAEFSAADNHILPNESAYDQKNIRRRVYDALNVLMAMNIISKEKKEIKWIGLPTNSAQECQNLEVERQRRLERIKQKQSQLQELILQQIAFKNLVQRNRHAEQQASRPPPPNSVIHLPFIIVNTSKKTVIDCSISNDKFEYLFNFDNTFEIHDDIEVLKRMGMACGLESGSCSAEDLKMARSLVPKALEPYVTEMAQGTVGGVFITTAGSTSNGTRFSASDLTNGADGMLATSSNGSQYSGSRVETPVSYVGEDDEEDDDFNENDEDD
Description: (§1) To establish whether E2F-1 was able to bind to PRMT5 in cells, the interaction between ectopic wild-type E2F-1 or KKK with PRMT5 was studied. […] Either a wild-type E2F-1 expression vector or a KKK expression vector was transfected into U2OS cells, and HA11 antibody was used for immunoprecipitation (IP) followed by immunoblotting with HA11 (E2F-1), PRMT5 or DP-1 as indicated. The level of input (In) protein is indicated. […] In contrast, binding to DP-1 was equivalent for both wild-type E2F-1 and KKK. […] Further, the RGRGR motif is necessary for the interaction, which also encompasses the site of PRMT5 methylation.
(§2) Cells were either left untransfected or transfected with expression vectors as indicated. At 48 h post transfection, cells were harvested in TNN buffer (50 mM Tris-HC1 [pH 7.4], 150 mM NaCl, 5 mM EDTA, 0.5% Ipegal, 50 mM NaF, 0.2 mM sodium orthovanadate and protease inhibitor cocktail (1 mM PMSF, leupeptin [1 μg/ml], aprotinin [1 μg/m1], and pepstatin A [1 μg/ml])) and rotated at 4° C. for 30 min to 1 h. The cell lysate was then homogenised, centrifuged at 11000 rpm for 10 min to remove cell debris and the supernatant collected. All lysates were normalized for protein concentration and, where appropriate, for transfection by β-galactosidase activity. […] Enhanced chemi-luminescence (Pierce Biotechnology, Rockford, Ill.) was used to visualize antibody binding.

PRMT5 [1] = target: T2, PRMT5 (Homo sapiens, UniProt O14744); assay: GST binding assay with U2OS cell lysate, PRMT5 immunoblot; set-up: The indicated GST proteins were incubated with U2OS cell lysate; endogenous in cells; host or cells: U2OS; conditions: GST-E2F-1 proteins incubated with U2OS cell lysate
Method: It was then assessed whether E2F-1 could interact with PRMT5 and thereafter the role of each R residue in mediating the interaction. […] The indicated GST proteins were incubated with U2OS cell lysate, and bound proteins immunoblotted using anti-GST (for input GST), DP-1 or PRMT5 antibodies. Binding to DP-1, the major heterodimeric partner for E2F-1 (Stevens and La Thangue 2003), served as a control since it bound equally to each of the E2F-1 proteins.
GST or GST tagged proteins (10 μg each) were incubated with agarose beads and damaged or undamaged U2OS cell lysates for 3 h. Beads were then washed with TNN buffer 3 times. SDS sample buffer was added to beads and samples were analysed by immunoblotting.
Target sequence in this assay (O14744 whole entry): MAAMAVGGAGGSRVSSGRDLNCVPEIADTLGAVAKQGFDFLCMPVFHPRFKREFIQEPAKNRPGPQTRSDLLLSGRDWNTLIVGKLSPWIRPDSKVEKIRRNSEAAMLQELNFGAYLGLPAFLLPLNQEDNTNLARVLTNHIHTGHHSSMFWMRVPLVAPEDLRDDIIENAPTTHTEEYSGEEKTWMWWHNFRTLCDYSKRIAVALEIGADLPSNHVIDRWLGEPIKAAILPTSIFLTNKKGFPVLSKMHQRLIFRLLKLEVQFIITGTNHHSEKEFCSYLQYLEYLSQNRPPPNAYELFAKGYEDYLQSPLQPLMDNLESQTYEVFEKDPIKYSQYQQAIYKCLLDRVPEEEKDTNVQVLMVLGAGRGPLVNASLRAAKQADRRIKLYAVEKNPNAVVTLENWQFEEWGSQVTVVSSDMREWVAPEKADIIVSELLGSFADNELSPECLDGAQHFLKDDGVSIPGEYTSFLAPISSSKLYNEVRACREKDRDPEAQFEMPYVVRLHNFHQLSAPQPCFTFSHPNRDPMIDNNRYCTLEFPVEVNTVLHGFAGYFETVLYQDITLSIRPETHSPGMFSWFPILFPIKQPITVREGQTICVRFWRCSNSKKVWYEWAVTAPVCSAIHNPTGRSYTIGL

PRMT5 [2] = target: T2, PRMT5; assay: Co-immunoprecipitation of ectopic E2F-1 with PRMT5 in U2OS cells; assay type: cell-based; set-up: The indicated GST proteins were incubated with U2OS cell lysate; endogenous in cells; host or cells: U2OS; conditions: expression vector transfected into U2OS cells, HA11 IP
Description: as §1, §2
Target sequence in this assay (O14744 whole entry): as above

PRMT5 [3] = target: T2, PRMT5; assay: In vitro methyltransferase assay of E2F-1 proteins; assay type: biochemical; set-up: made in house; host or cells: U2OS cells (transient transfection, anti-Flag immunoprecipitation, elution); conditions: about 1 μg protein, 3H labeled SAM; mutants compared with wild-type E2F-1
Method: To assess whether the RGRGR motif was a direct target for PRMT5 methylation, a series of mutant derivatives of E2F-1 were made in which each arginine (R) residue was substituted with a lysine residue (K; FIG. 1a), and the ability of the mutant derivative to be methylated in vitro then assessed. […] In FIG. 1b(i) each of the indicated proteins (about 1 μg) was used in the methylation reaction. In vitro methylated samples were analysed by SDS-PAGE as described below. E2F-1 is indicated. In FIG. 1b(ii) samples in FIG. 1b(i) were counted (3H cpm as indicated). Histones treated with PRMT5 served as the positive control. The data shown provide one example taken from two different experiments.
Flag-PRMT5 plasmid was transfected into U2OS cells for 48 h. Cells were lysed and Flag-PRMT5 was immunoprecipitated with agarose beads and then eluted. The elute was mixed with recombinant substrates (GST fusion proteins or histones) in methylation reaction buffer (50 mM Tris, 0.1 mM EDTA, 50 mM NaCl) with ^3H labeled SAM (as —CH3 group donor) to a volume of 40 μl and incubated at 30° C. for 90 min. Half of the reactions were then spotted onto p81 membrane circles (Whatman) and air dried. The membranes were then washed three times, 5 min each in 50 ml of wash buffer (46 mM NaHCO3, 4 mM Na2CO3, pH 9.2). After washing briefly with acetone, membranes were air dried, placed in scintillation vials, immersed in scintillation fluid (Beckman Coulter) and disintegrations per minute (DPM) measured in a scintillation counter. The other half of the reactions were run on SDS-PAGE gel and used to detect ^3H auto-radioisotope/methylation signal.
Target sequence in this assay (O14744 whole entry): as above
Target sequence in this assay (Q9BQA1 whole entry partner): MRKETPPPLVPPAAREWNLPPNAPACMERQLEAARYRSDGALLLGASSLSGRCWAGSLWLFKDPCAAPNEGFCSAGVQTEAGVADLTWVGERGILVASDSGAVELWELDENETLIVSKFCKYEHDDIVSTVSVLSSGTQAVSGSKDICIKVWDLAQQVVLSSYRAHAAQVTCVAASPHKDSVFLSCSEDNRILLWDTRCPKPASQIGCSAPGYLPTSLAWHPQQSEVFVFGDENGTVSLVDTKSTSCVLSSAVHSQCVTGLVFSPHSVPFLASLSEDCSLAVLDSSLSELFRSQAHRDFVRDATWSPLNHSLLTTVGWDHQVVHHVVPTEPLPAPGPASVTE

U2OS cells = assay: Apoptosis (sub-G1) by FACS in U2OS cells; assay type: cell-based; conditions: U2OS cells, expression vectors 48 h; relative to wild-type E2F-1; n=2
Method: Whether arginine methylation influences E2F-1-dependent apoptosis was investigated by comparing the ability of wild-type E2F-1 to the KK and KKK mutants to induce cells with a sub-G1 DNA content (Stevens et al 2003). […] U2OS cells were transfected with expression vectors encoding wild-type E2F-1, KK and KKK as indicated for 48 h and analysed by FACS as described. The graph represents the relative change in sub-G1 populations compared to the empty vector control treatment; n=2.
The graph (i) represents the relative number of sub-G I cells (compared to the control treatment) in the indicated conditions; and (ii) the level of PRMT5 and E2F-1; n=3.
PRMT5 (P) or control (C) non-targeting siRNA (25 nM) was transfected into HCT116 p53+/+ (i), HCT116 p53−/− (ii) or U2OS (iii) cells and the cells were harvested 72 h post-transfection and analysed by FACS. The graph represents the actual number of sub-G1 cells in the indicated conditions, and the immunoblot the level of PRMT5 and actin control; n=3.
PRMT5 (P), E2F-1 (E) or control (C) non-targeting siRNA was transfected into U2OS cells and harvested 72 h post-transfection and analysed by FACS as described.
Cells were transfected with the indicated expression vectors together with pBB14-GFP (for 48 h) to monitor transfection efficiency or siRNA (for 48 h or 72 h) with or without treatment of the DNA damage agent for the last 16 h. Then, cells were fixed and stained with propidium iodide and analyzed by Flow Cytometry.

[4] = tested on: p73-luciferase or cyclinE-luciferase; assay: Reporter assay with E2F-responsive promoters; assay type: cell-based; conditions: U2OS cells, 48 h, equivalent protein level; compared to wild-type E2F-1; n=3
Method: To further explore the role of arginine methylation in the transcription properties of E2F-1, wild-type E2F-1 was compared with the KK and KKK mutants in a reporter-based transfection assay, using E2F-responsive promoters derived from E2F target genes. The assay was performed under conditions in which each mutant protein was expressed at an equivalent level to wild-type E2F-1 (FIG. 4aii and bii), thus ruling out any difference in activity that could be attributed to protein levels. […] FIGS. 4a and b show the transcription properties of wild-type E2F-1, KK and KKK mutants. U2OS cells were transfected with expression vectors encoding WT or mutant E2F-1 protein, together with p73-luciferase (A) or cyclinE-luciferase (B) for 48 h as indicated, and pCMV-βgal to monitor transfection efficiency. Relative luciferase activity (luciferase/βgal) is shown together with expression level of ectopic proteins; n=3. […] PRMT5 (P) or control (C) non-targeting siRNA was transfected into U2OS cells together with p73-luciferase (i) or cyclinE-luciferase (ii) for 48 h, together with pCMV-βgal to monitor transfection efficiency. Relative luciferase activity is shown together with expression level of the ectopic proteins.
Cells were transfected with expression vectors (1 μg) encoding WT or the mutant E2F-1 proteins as indicated with E2F responsive luciferase reporters, namely p73-luciferase or cyclinE-luciferase, together with pCMV-βgal to monitor transfection efficiency. Cells were harvested, lysed 48 h post-transfection and luciferase activity measured as previously described (Janson et al 2008).

Substance	binding to DP-1 in cells (DP-1)	binding to PRMT5 (PRMT5 [1])	co-immunoprecipitation with PRMT5 (PRMT5 [2])	in vitro methylation by PRMT5 (PRMT5 [3])	apoptosis (sub-G1 population) (U2OS cells)	transcriptional activity (relative luciferase activity) [4]
wild-type E2F-1: E2F-1 protein, SEQ ID NO:3, used as GST fusion or HA-tagged expression vector	equivalent	bound to PRMT5	co-immunoprecipitated with PRMT5	could be methylated in vitro	–	–
R109K: mutant E2F-1 with arginine 109 substituted with lysine	–	significant PRMT5 binding activity	–	reduced methylation	–	–
R113K: mutant E2F-1 with arginine 113 substituted with lysine	–	compromised PRMT5 binding	–	greater level of reduction	–	–
R111K: mutant E2F-1 with arginine 111 substituted with lysine	–	compromised PRMT5 binding	–	greater level of reduction	–	–
KK: methylation-defective E2F-1 protein containing the mutations R111K and R113K	–	completely devoid of PRMT5 binding	–	could not be methylated by PRMT5	increased levels of apoptosis	increased transcriptional activity
